Experimental data from patent US20250154231A1 (RQBIO COVID, published 2025).
Substitutions are numbered along the chain they refer to. Read-outs that look alike come from different tables or passages of the source.

How the values were obtained:
Omicron BA.2 RBD [1] = molecular target: T1, Omicron BA.2 RBD (SARS-CoV-2, UniProt P0DTC2 333-528)
Omicron BA.2.12.1 RBD [2] = molecular target: T2, Omicron BA.2.12.1 RBD (SARS-CoV-2, UniProt P0DTC2 333-528)
Omicron BA.1 RBD = molecular target: T3, Omicron BA.1 RBD (SARS-CoV-2, UniProt P0DTC2 333-528); experiment: ELISA
T3 construct: domain: RBD

Omicron BA.2 RBD [3] = molecular target: T1, Omicron BA.2 RBD; remark: listed apart in the source
Omicron BA.2.12.1 RBD [4] = molecular target: T2, Omicron BA.2.12.1 RBD; remark: listed apart in the source
Omicron BA.2 RBD [5] = molecular target: T1, Omicron BA.2 RBD; remark: listed apart in the source
Omicron BA.2 RBD [6] = molecular target: T1, Omicron BA.2 RBD; remark: listed apart in the source
Omicron BA.2 RBD [7] = molecular target: T1, Omicron BA.2 RBD; remark: listed apart in the source
Omicron BA.2 RBD [8] = molecular target: T1, Omicron BA.2 RBD; remark: listed apart in the source
Omicron BA.2 RBD [9] = molecular target: T1, Omicron BA.2 RBD; remark: listed apart in the source
Omicron BA.2 RBD [10] = molecular target: T1, Omicron BA.2 RBD; remark: listed apart in the source
Omicron BA.2 RBD [11] = molecular target: T1, Omicron BA.2 RBD; remark: listed apart in the source
Omicron BA.2 RBD [12] = molecular target: T1, Omicron BA.2 RBD; remark: listed apart in the source

B1: Omi06 (antibody, V domains shown)
VH: EVQLLESGPGLVKPSETLSLTCTVSGGSISRYSWSWIRQPAGRGLEWIGRMYSSGGTNYNPSLESRVTMSLDTSKKQFSLKLSSVTAADTAVYYCAAASIDQVWGTYRDAFDIWGQGTMVTVSS
VL: AIRMTQSPSSLAASVGDRVTISCRAGQSISSFLHWYQQKVGKAPKLLIYDASSLQSGVPSRFSGSGSGTDFTLTISSLQPEDFAAYYCQQSYENPLTFGGGTKVDIK
Kd (Omicron BA.2 RBD [1]): 1.3 nM | T1/2 (Omicron BA.2 RBD [1]): 0.983 min | koff (Omicron BA.2 RBD [1]): 0.012 s⁻¹ | kon (Omicron BA.2 RBD [1]): 9e+06 M⁻¹ s⁻¹ | Kd (Omicron BA.2.12.1 RBD [2]): 19 nM

B2: Omi09 (antibody, V domains shown)
VH: QVQLVESGGGVVQPGRSLRLSCAASGFTFRTYAVHWVRQAPGKGPEWVAVISYDGSNKYYADSVKGRFTLSRDTSKNTLYLQMNSLRAEDTAVYYCASRGDTVTTGDAFDIWGQGTMVTVSS
VL: SYELTQPPSVSVSPGQTARITCSGDALPKQYTYWYQQKPGQPPVLVIYKDSERPSGIPERFSGSSSGTTVTLTISGVQAEDEADYYCQSTDSSATYPGNVVFGGGTKLTVL
binding result (Omicron BA.1 RBD): binds

B3: Omi31 (antibody, V domains shown)
VH: EVQLVQSGAEVKKPGSSVKVSCKASGGTFSSYGISWVRQAPGLGLEWMGGVIPILSAKHYAQRFQGRVTITADKSTGTAYMELSSLRSEDTAVYYCARDILHHDDLWGRFYYDGMDVWGQGTTVTVSS
VL: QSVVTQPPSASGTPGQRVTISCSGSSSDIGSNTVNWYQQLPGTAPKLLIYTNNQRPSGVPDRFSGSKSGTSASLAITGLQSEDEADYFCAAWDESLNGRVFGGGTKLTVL
Kd (Omicron BA.2 RBD [3]): 0.0032 nM | T1/2 (Omicron BA.2 RBD [3]): 366 min | koff (Omicron BA.2 RBD [3]): 3.1e-05 s⁻¹ | kon (Omicron BA.2 RBD [3]): 9.8e+06 M⁻¹ s⁻¹ | Kd (Omicron BA.2.12.1 RBD [4]): 4.1 nM | T1/2 (Omicron BA.2.12.1 RBD [4]): 0.733 min | koff (Omicron BA.2.12.1 RBD [4]): 0.016 s⁻¹ | kon (Omicron BA.2.12.1 RBD [4]): 3.8e+06 M⁻¹ s⁻¹

B4: Omi03 (antibody, V domains shown)
VH: EVQLVESGGGLIQPGGSLRLSCAASEIIVSRNYMSWVRQAPGKGLEWVSVIYSGGSTFYADSVKGRFTISRDNSKNTLYLQMNSLRAEDTAVYYCARDLDVVGGTDYWGQGTLVTVSS
VL: not shown
Kd (Omicron BA.2 RBD [5]): 4.4 nM | T1/2 (Omicron BA.2 RBD [5]): 2.9 min

B5: Omi34 (antibody, V domains shown)
VH: QVQLVQSGAEVKKPGSSVKVSCKASGGTFSSYGIRWVRQAPGQGLEWMGGIIPVFGATNYAQKFQDRVTITADKSTATAYMELSSLKSDDTAVYFCARDALSASGWTGPFDSWGQGTLVTVSS
VL: QSVLTQPPSVSGAPGQRVTISCTGSSSNIGADYDVHWYQQLPGAAPKLLIYGNNNRPSGVPDRFSGSKSGTSASLAITGLQAEDEADYYCQSYDSSQNAFYVFGTGTKVTVL
binding result (Omicron BA.1 RBD): binds

B6: Omi30 (antibody, V domains shown)
VH: EVQLVESGAEVKKPGSSVKVSCKASGGTFSRYAISWVRQAPGQGLEWMGGIIPIFDATNYAQKFHDRVTITADKSASTAYMELSSLRSDDTAVYYCARERTYCSGGTCYGGYFYYGMDVWGQGTTVTVSS
VL: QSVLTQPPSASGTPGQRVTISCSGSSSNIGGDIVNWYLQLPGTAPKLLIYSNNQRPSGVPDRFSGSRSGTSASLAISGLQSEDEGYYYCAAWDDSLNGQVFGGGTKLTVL
binding result (Omicron BA.1 RBD): binds

B7: Fab Beta-54 (Fab, V domains shown)
VH: QVQLQESGPGLVKPSETLSLTCTVFGGSITSSNHYWVWIRQPPGKGLEWIGSMYYSGSTAYNPSLTNRVTISVDTSKNQFSLKLSSVTAADTAVYYCARQIGPKRPSQVADWFDPWGQGTLVTVSS
VL: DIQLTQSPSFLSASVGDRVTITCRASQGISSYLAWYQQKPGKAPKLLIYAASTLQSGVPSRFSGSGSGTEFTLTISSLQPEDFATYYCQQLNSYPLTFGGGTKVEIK
Kd (Omicron BA.2 RBD [6]): 44 nM | T1/2 (Omicron BA.2 RBD [6]): 2.3 min | koff (Omicron BA.2 RBD [6]): 0.005 s⁻¹ | kon (Omicron BA.2 RBD [6]): 110000 M⁻¹ s⁻¹

B8: Omi08 (antibody, V domains shown)
VH: EVQLVESGAEVKRPGASVKVSCKASGYTFTNYFMHWVRQAPGQGLEWMGVINPSDGGASYPQKFQGRVTMTRDTSTSTVYMDLSSLRSEDTAVYSCARGAFDVSGSWYVPFDYWGQGTLVTVSS
VL: QSVVTQPPSVSGAPGQRVTISCTGSSSNIGAGYDVHWYQQLPGAAPKLLIYGNTNRPSGVPDRFSGSKSGTSASLAITGLQAEDEADYYCQSYDITLSGSGYVFGTGTKVTVL
binding result (Omicron BA.1 RBD): binds

B9: Omi-42 Fab (Fab, V domains shown)
VH: EVQLLETGGGLVQPGRSLRLSCAASGFPFDDYAIHWVRLAPGKGLEWVSSISWDSGSIGYADSVKGRFTISRDNAKNSLYLQMNSLRAEDTALYYCAKGAFPGYSSGWYYGLDVWGQGATVTVSS
VL: QSVVTQPPSASGSLGQSVTISCTGTSSDVGGYNYVSWYQQHPGKAPKLMIFEVSKRPSGVPDRFSGSKSGNTASLTVSGLQAEDEADYYCSSYAGNKGVFGGGTKLTVL
Kd (Omicron BA.2 RBD [7]): 0.99 nM | T1/2 (Omicron BA.2 RBD [7]): 131 min | koff (Omicron BA.2 RBD [7]): 8.8e-05 s⁻¹ | kon (Omicron BA.2 RBD [7]): 89000 M⁻¹ s⁻¹

B10: Omi02 (antibody, V domains shown)
VH: EVQLVESGAEVKKPGSSVKVSCKASGGTFSSYAINWVRQAPGQGLEWMGGIIPIFRTPHYAQKFQGRVTITADESTGTAYMELSSLRSEDTAVYYCASPSCGGDCPQYLKSSKLDWYFDLWGRGTLVTVSS
VL: VIWMTQSPGTLSLSPGERATLSCRASQSVSSTYLAWYQQKPGQAPRLLIYGASSRATGIPDRFSGSGSGTDFTLTISRLEPEDFAVYYCQHYGSSPLTFGQGTRLEIK
binding result (Omicron BA.1 RBD): binds

B11: Omi39 (antibody, V domains shown)
VH: QVQLVESGGVVVQPGGSLRLSCAASGFSFDDYSMHWVRQAPGKGLEWVSVIYWDGVSKYYADSVKGRFTISRDNSKNSLYLQMNSLRTEDTAVYYCAKDSEDCSSTSCYMDVWGKGTTVTVSS
VL: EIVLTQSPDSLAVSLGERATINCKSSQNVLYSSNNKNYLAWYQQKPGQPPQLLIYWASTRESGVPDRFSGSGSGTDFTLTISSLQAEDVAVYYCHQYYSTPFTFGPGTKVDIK
binding result (Omicron BA.1 RBD): binds

B12: Omi12 (antibody, V domains shown)
VH: EVQLVESGPEVKKPGTSVKVSCKASGFSFSMSAMQWVRRARGQRLEWIGWIVPGSGNANYAQKFQERVTITRDESTNTGYMELSSLRSEDTAVYYCAAPHCNKTNCYDAFDIWGQGTMVTVSS
VL: AIRMTQSPGTLSLSPGERATLSCRASQSVRSSYLAWYQQKPGQAPRLLIYGASTRATGIPDRFSGSGSGTDFILTINRLEPEDLAVYYCQQFGSSPWTFGQGTKVDIK
Kd (Omicron BA.2 RBD [8]): 0.13 nM | T1/2 (Omicron BA.2 RBD [8]): 20 min | koff (Omicron BA.2 RBD [8]): 0.00058 s⁻¹ | kon (Omicron BA.2 RBD [8]): 4.3e+06 M⁻¹ s⁻¹

B13: Omi38 (antibody, V domains shown)
VH: QVQLVESGAEVKKPGSSVKVSCKASGGNFNMYTISWVRQAPGRGLEWMGRFIPIANKANYAQNFPGRVTITADKSTSTVYMELRSLTSDDTAVYYCARSGSYDAFDVWGQGTMVTVSS
VL: AIRMTQSPSTLSASVGDRVTITCRASQTINSWLAWYQQKPGKAPKLLIYDASNLESGVPSRFSGSGSGTEFTLTISSLQPDDFATYYCQQYESYSPITFGQGTRLEIK
binding result (Omicron BA.1 RBD): binds

B14: Omi-32 Fab (Fab, V domains shown)
VH: EVQLVESGGGVVQPGRSLRLSCAASGFTFSNYGMHWVRQAPGKGLEWVAVYWYDGGNKFYADSVKGRFTISRDNSKNTLYLQMNSLRVEDTAVYYCARDTAPPDYWGQGTLVTVSS
VL: AIRMTQSPGTLSLSPGERATLSCRASQSISSSFLAWYQQKPGQAPRLLIYGASSRATGIPDRFSGSGSGTDFTLTISRLEPEDFAVYYCQQYGTSPRLTFGGGTKVDIK
Kd (Omicron BA.2 RBD [9]): 5.9 nM | T1/2 (Omicron BA.2 RBD [9]): 71 min | koff (Omicron BA.2 RBD [9]): 0.00016 s⁻¹ | kon (Omicron BA.2 RBD [9]): 27000 M⁻¹ s⁻¹

B15: Omi33 (antibody, V domains shown)
VH: B14 VH with V5L, T28K, N31D, N57T, N84S
VL: B14 VL with A1E, R3V, M4L, S32N
binding result (Omicron BA.1 RBD): binds

B16: Omi35 (antibody, V domains shown)
VH: QVQLVESGGGLVQPGRSLRLSCAASGFTFDDYAMHWVRQAPGKGLEWVSGSTWNSGTIDYADSVKGRFTISRDNAKNSLYLQMNSLRAEDTALYYCAKDRFRKGCSSTGCYKENYGMDVWGQGTTVTVSS
VL: QSVVTQPPSVSVAPGQTARITCGGTNIGSKSVHWYQQKPGQAPVLVVYDDSDRPSGIPERFSGSNSGNTATLTITWVEAGDEADYYCQVWDSSSDNVLFGGGTKLTVL
binding result (Omicron BA.1 RBD): binds

B17: Omi-18 Fab (Fab, V domains shown)
VH: QVQLVESGGGLIQPGGSLRLSCAASGITVSSNYMTWVRQAPGKGLEWVSLLYAGGSAFYADSVKGRFTISRDNSKNTLYLLMNSLRVGDTAVYYCARDLQVYGMDVWGQGTTVTVSS
VL: SYELTQPPSVSVAPGQTARITCGGNNDGAKSVHWYQQKPGQAPVLVVYDDSDRPSGIPERFSGSNSGNTATLTITRIEAGDEADYYCQVWDSSRDHVFGTGTKVTVL
Kd (Omicron BA.2 RBD [10]): 4.3 nM | T1/2 (Omicron BA.2 RBD [10]): 20 min | koff (Omicron BA.2 RBD [10]): 0.00057 s⁻¹ | kon (Omicron BA.2 RBD [10]): 130000 M⁻¹ s⁻¹

B18: Omi-20 Fab (Fab, V domains shown)
VH: EVQLVESGGGLVQPGGSLRLSCEASEITVSSNYMNWVRQAPGKGLEWVSVLFAGGTTYYADSVKGRFTISRDNSKNTLYLQMNTLRIEDTAIYYCARDLVAYGVDVWGQGTTVTVSS
VL: AIQMTQSPSFLSASVGDRVTITCRASQGISGDLAWYQQKPGKAPKLLIYAASTLQSGVPSRFSGSGSGTEFTLTISSLQPEDFATYYCQHLNSYPLTFGGGTKVEIK
Kd (Omicron BA.2 RBD [11]): 138 nM | T1/2 (Omicron BA.2 RBD [11]): 3.2 min | koff (Omicron BA.2 RBD [11]): 0.0036 s⁻¹ | kon (Omicron BA.2 RBD [11]): 26000 M⁻¹ s⁻¹

B19: Omi20 (antibody, V domains shown)
VH: B18 VH
VL: B18 VL
Kd (Omicron BA.2 RBD [12]): 2.4 nM | T1/2 (Omicron BA.2 RBD [12]): 5.6 min | koff (Omicron BA.2 RBD [12]): 0.0021 s⁻¹ | kon (Omicron BA.2 RBD [12]): 870000 M⁻¹ s⁻¹
